In article PMC6299030, “An Allosteric-Probe for Detection of Alkaline Phosphatase Activity and Its Application in Immunoassay”:

Biological target: Streptavidin (on Sepharose beads) (UniProt P22629 25-183)
Test: bead binding, flow cytometry and fluorescence microscopy; SA3 released from AP by lambda exo, no ALP; 70 mM Tris-HCl, 10 mM MgCl2, pH 8.0; 200 nM AP in 100 uL, 3 uL SA beads, 5 min at room temperature after enzyme steps at 37 C and 75 C inactivation
Conditions: protein: commercial; tags: immobilized on Sepharose beads; chain copies: 4; label: 5'-FAM; hairpin with bulge

Chain of Streptavidin (on Sepharose beads) (P22629 25-183): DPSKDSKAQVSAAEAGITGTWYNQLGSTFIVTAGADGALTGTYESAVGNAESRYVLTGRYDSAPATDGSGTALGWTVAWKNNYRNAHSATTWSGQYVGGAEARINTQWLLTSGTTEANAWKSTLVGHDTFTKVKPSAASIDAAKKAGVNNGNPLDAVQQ

Binder: ATTGACGCGTGTGACGCAACACTCAAT (structured_DNA) [SA3]
- binding result: binds
